# Test results: a protein production outcome set (Wang et al. 2014)
# Assay: label from the status in PepcDB records
row,Sequence,protein production
1,MDVGSFGFTIAGLVVGFIVGMTGVGGGSLMTPILLWFGIHPATAVGTDLLYAAITKASGVWVHARNKNIDWKITGLLSLGSVPAAALTLWFLSTLHTDTSALNAIIKQGLAVVLILTALAILFKSRLQAFASRHAGDHYHLSDRSLNILTVLTGVVLGIMVTLTSIGAGALGTVALFLLYPFLVTRRLVGTEIAHAVPLTLVAGLGHAGMGNMDWSLLGYLLLGSLPGIYLGSHLTGRISDRVLRPCLATMLLLIGYKLAF,failed
2,MSLNETYMMITFQSGMDYWKRCLKGFEDAAQALNVTVEYRGAAQYDIQEQITVLEQAIAKNPAGIAISAIDPVELTDTINKAVDAGIPIVLFDSGAPDSHAHSFLGTNNYNAGMNAAYKMAELLDGEGEVAVITLPNQLNHQERTTGFKETLEAEFPAIEVIAVEDGRGDSLHSRRVAHQLLEDYPNLAGIFATEANGGVGVGDAVRLESRAGEIQIISFDTDKGTLDLVDEGIISATLAQGTWNMGYWSLTYLFHLHHGLTEPQILQTREEAPLPLYVDTGITIVTDENVDYYYADEGHHHHHH,not failed
3,GQPSNDKKNVLPDWAFGGFERPQGANPVISPIENTKFYCPMTQDYVAWESNDTFNPAATLHDGKIVVLYRAEDKSGVGIGHRTSRLGYATSSDGIHFKREKTPVFYPDNDTQKKLEWPGGCEDPRIAVTAEGLYVMTYTQWNRHIPRLAIATSRNLKDWTKHGPAFAKAYDGKFFNLGCKSGSILTEVVNGKQVIKKIDGKYFMYWGEEHVFAATSEDLVNWTPYVNTDGSLRKLFSPRDGHFDSQLTECGPPAIYTPKGIVLLYNGKNSASRGDKRYTANVYAAGQALFDANDPTRFITRLDEPFFRPMDSFEKSGQYVDGTVFIEGMVYYKDKWYLYYGCADSKVGMAIYNPKKPAAADPLP,not failed
4,MMKEMTVQQMTEKVLNKESLFILDVRNESDFRDWKIEGENFAYLNVPYFELVHGVDSIVDRLPKDQDIVVVCAKGGSAAFVAEQLAEAGFDNVYTLAGGMQAWSEHLHQAKVYEDDQLKIYQFIRVGKGCLSYMVLSGDEALVVDPLRFIDVYEQVAQQEGVTITHIVDSHLHADHLSGGKALAERTGAAYYLMKSEGAVFDFEPLEQHETIDFENVHLEVLAVKTPGHTPGSVSFFVNGKWLFSGDTIFVGGLGRPDLGGKVAEWAEDLYHTVYEKVAAMADDVIVLPAHYANLDEEINAEGYVGDTLGRIRARNEMMQNKAKDEFIDLVIQGAKTETPPNFEDIVAINRGLKTVDIETQRELEIGPLEHHHHHH,not failed
5,AAIYHLDVSGQATIRFRPPAFLKTLVSEHAGTTRLNTLSMIHHDDRHMLSNAYSKLREAKHSLTLVYRIVTPEGKLHWIEDHMRSSFSDD,failed
6,MSDIIDEVISSFKTSSIFINREYLLPDYIPDELPHREDQIRKIASILAPLYREEKPNNIFIYGLTGTGKTAVVKFVLSKLHKKFLGKFKHVYINTRQIDTPYRVLADLLESLDVKVPFTGLSIAELYRRLVKAVRDYGSQVVIVLDEIDAFVKKYNDDILYKLSRINSEVNKSKISFIGITNDVKFVDLLDPRVKSSLSEEEIIFPPYNAEELEDILTKRAQMAFKPGVLPDNVIKLCAALAAREHGDARRALDLLRVSGEIAERMKDTKVKEEYVYMAKEEIERDRVRDIILTLPFHSKLVLMAVVSISSEENVVSTTGAVYETYLNICKKLGVEAVTQRRVSDIINELDMVGILTAKVVNRGRYGKTKEIGLAVDKNIIVRSLIESDSRFADLWS,failed
7,AHHHHHHGSKMIKVKVIGRNIEKEIEWREGMKVRDILRAVGFNTESAIAKVNGKVVLEDDEVKDGDFVEVIPVVSGG,not failed
8,AASSRSWKSWFIEQYFWLKRDKSYYSKQDDPSFQRYLDACREQSDKPYQLDTNLVNGPLVQENLYGMQVYSWNDNGKPDQKTIIYLAGGSYLNNPTTYHINMLKTLSTSLDAKIVLPIYPKAPRYTYNYTMPKLVNLYQHYYHKNQNVFLMGDSAGGGLALGLAHALHNESVPQPKQLVLLSPWLDVTMSHPEIPEYEDADPILSSWGLKRVGELWAYSADNTNHIYVSPKNGPITYLPPITLFTGTREIFYPDIRDYAAKLKAANHNITFITQEGMNHVYPIYPIEEAKTAQYQIIDAINKT,failed
9,MSKIEIFEAAGCCATSSVVVSDEAVKWNASAEWAKKHGVNIQRYSLAKNPQQFLNTPVIRAFLNTSGMESLPATLLDGQLVMAGKLPSREDIARWAGISLTQDWNEDSTQPRCCSIPRMP,failed
10,MGSELYLMFFAAITLLAILNPFGNLTQFLAMSDGLPLMLRKKLFRTILYTAFTIVLVFLLSGPLFMNYIFRVSLDDLRVSGGLVLIIMAIKNLLFSTKIATKDFSSYQDMDDKEILRQSLIPMAFPMLVGPGTLASVIVIAEDGGLDVALGGVMIAFIFMFILFHFAATIEKIVGKLILHVFSRIAQVFIVAMGFKMIIVGLKDIFNL,failed
11,MLLLTPGPTPIPERVQKALLRPMRGHLDPEVLRVNRAIQERLAALFDPGEGALVAALAGSGSLGMEAGLANLDRGPVLVLVNGAFSQRVAEMAALHGLDPEVLDFPPGEPVDPEAVARALKRRRYRMVALVHGETSTGVLNPAEAIGALAKEAGALFFLDAVTTLGMLPFSMRAMGVDYAFTGSQKCLSAPPGLAPIAASLEARKAFTGKRGWYLDLARVAEHWERGGYHHTTPVLLHYALLEALDLVLEEGVAARERRAREVYAWVLEELKARGFRPYPKASPLPTVLVVRPPEGVDADRLVRALYAEGVAVAGGIGPTRGQVLRLGLMGEGARREAYQAFLKALDRALALA,not failed
12,MSHSLKDFLEACETLGTLRLIVTSSAAVLEARGKIEKLFYAELAKGKYANMHTEGFEFHLNMEKITQVKFETGEAKRGNFTTYAIRFLDEKQESALSLFLQWGKPGEYEPGQVEAWHTLKEKYGEVWEPLPVQL,not failed
13,MLERLKRIHYMFWISLIFMIFPILSVVTGWLSAWHLLIDILFVVAYLGVLTTKSQRLSWLYWGLMLTYVVGNTAFVAVNYIWFFFFLSNLLSYHFSVRSLKSLHVWTFLLAQVLVVGQLLIFQRIEVEFLFYLLVILTFVDLMTFGLVRIRIVEDLKEAQVKQNAQINLLLAENERSRIGQDLHDSLGHTFAMLSVKTDLALQLFQMEAYPQVEKELKEIHQISKDSMNEVRTIVENLKSRTLTSELETVKKMLEIAGIEVQVENHLDKSSLTQELESTASMILLELVTNIIKHAKASKVYLKLERTEKELILTVRDDGCGFASISGDELHTVRNRVFPFSGEVSVISQKHPTEVQVRLLYKERK,failed
14,FKVPPFQDCILSFLGFSDEEKHSMEEMTEMQGGSYLPVGDERCTHLIVEENTVKDLPFEPSKKLFVVKQEWFWGSIQMDARAGETMYLYEKANTPE,not failed
15,MKHSLSIIFILIAAMMWGTTGTAQVFAPAEAHPIIIGASRLAVGGLALFIFVMAQRKFQLRGWPVLPTFIAALSMAAYQPFFFSAVSITGVAVGTVVAIGSAPIIAGLLDWVIQRKPPGPTWGIATILAIAGCLLLTLPGEEVTVSPVGFLLAIGAGLSFAVYTAASKKLLQQQPSEAVVAVVFSLSALFLVPLFFLYDLSWLTEFRGIIVVLHLGIVATAIAYLLFTRGLTGVASSTAVTLALAEPLTAALLGVFLVGEALSFIAWGGVLLLLLGLAVLTGFTGARTPSTRFMRNKKDKVNVE,failed
16,DQEVRLENRITFQLELVGLERVVRISAKPTKRLQEALQPILAKHGLSLDQVVLHRPGEKQPMDLENPVSSVASQTLVLDTPPDAKMSEARS,not failed
17,MALKATIYKATVNVADLDRNQFLDASLTLARHPSETQERMMLRLLAWLKYADERLQFTRGLCADDEPEAWLRNDHLGIDLWIELGLPDERRIKKACTQAAEVALFTYNSRAAQIWWQQNQSKCVQFANLSVWYLDDEQLAKVSAFADRTMTLQATIQDGVIWLSDDKNNLEVNLTAWQQPS,not failed
18,MPKIAKELSALEVKRLTCRIDPETGEATEVRYPVGGVSGLLLRITPSGSRQWILRAKVGNRRPDMGLGPYPEISLAQARDKAREMKEKIRSGIDPLEEKRTLKRALLAEQISTLTFQKAMEKYIKMKAKEFRNPRQEKQWTNSLNTYAIPHLGKLPVREIDLPHIKQVLDPIWETKTETANRVRARIENILGWCAIHGYRSAENPARWQGYLDEVYPSPEKIKKRGHFAALPVDDMPEFMRDLKKRTGTAARALEFLILTASRTNEVIGDKRIGKAGVTWQEIDLARKVWTVPADRMKSEKIHRVPLTDSAIELLKGMGEGSPEDLIFPGPKGGIPSNNFLTALLKRMERPITAHGFRSTFKDWARERTAYADEVSELALAHVNSDATRAAYARSELIDKRRLMMADWEQFCMHGETKKESGKVVAIGEGKG,failed
19,MDFLARATAIVGNTMVLMRRFGSPGTQAIGQSPAIPEAQKQGIMTLKMPAAKGWAPGHLPTPAPGLKVNAFARDLEHPRWIEVLPSGDVLVAEARQLPTPPKTLLDRAAQATMRRIRALGDSPNRITLLRDPDGRGEAQERETFLENQSQPFGMALVGDTFYVGNTDGIMAFPYRPGATRLEGPGRRLTTFKPGGHWTRSLIVSPDGRRIYAGVGSLSNIGDDGMEAEEGRAAIWELDLASGQARIYASGLRNPVGLAWEPTTRVLWTVVNERDGLGDETPPDYLTSVEEDGFYGWPYCYWNRIVDDRVPQDPAMVARAITPDYALGGHTASLGLCWVPAGTLPGFGDGMAIGQHGSWNRSKLSGYRLIFVPFANGRPSGPPRDILTGFLSDDEKLAYGRPVGVAVGPDRRSLLLADDVGDVIWRVTGALEHHHHHH,failed
20,MTGEKIRSLRRDHKPSKEEGDLLEPGDEEAAAALGGTFTRSRIGKGGKACHKIFSNHHHRLQLKAAPASSNPPGAPALPLHNSSVTANSQSPALLAGTNPVAVVADGGSCPAHYPVHECVFKGDVRRLSSLIRTHNIGQKDNHGNTPLHLAVMLGNKECAHLLLAHNAPVKVKNAQGWSPLAEAISYGDRQMITALLRKLKQQSRESVEEKRPRLLKALKELGDFYLELHWDFQSWVPLLSRILPSDACKIYKQGINIRLDTTLIDFTDMKCQRGDLSFIFNGDAAPSESFVVLDNEQKVYQRIHHEESEMETEEEVDILMSSDIYSATLSTKSISFTRAQTGWLFREDKTERVGNFLADFYLVNGLVLESRKRREHLSEEDILRNKAIMESLSKGGNIMEQNFEPIRRQSLTPPPQNTITWEEYISAENGKAPHLGRELVCKESKKTFKATIAMSQEFPLGIELLLNVLEVVAPFKHFNKLREFVQMKLPPGFPVKLDIPVFPTITATVTFQEFRYDEFDGSIFTIPDDYKEDPSRFPDL,failed
21,ASTVHEMGVFASLDDAVAAAKRAQQGLKSVAMRQLAIHAIREAGEKHARELAELAVSETGMGRVDDKFAKNVAQARGTPGVECLSPQVLTGDNGLTLIENAPWGVVASVTPSTNPAATVINNAISLIAAGNSVVFAPHPAAKKVSQRAITLLNQAVVAAGGPENLLVTVANPDIETAQRLFKYPGIGLLVVTGGEAVVDAARKHTNKRLIAAGAGNPPVVVDETADLPRAAQSIVKGASFDNN,failed
22,MSSSKKPSQQPSQINLSAEIGQFISLNQEAFAELLTFIDFAEKFTLGLVEVNFPPDVDLLIAALQNNPDCENIQFFILKCVDANLRFLRDEIIKRLSEIELESNKKLVLIVRGLENAIGVFGEYPPVLQDLNFVRDAYKRTVPHPILFILPDYAITRLAKFAPDFWAWRSGIFRFKTPAITKENAINQVKNSEILDRIEPPEKQERIDLLHRLLMEEKPTGQQVTDGNLRSYSNILHQLGQAYLSHIKPEKAREYLEEAERISENLQDELFQAEVINTLGDTYSLQRQFNLGIKYYEKSLLIARRLENRLSEINALFKLGNAYLDLRQFSQAAKFYQQCLDIEQEIGDRYSQASTYHELGRVAQNLREWEQAKTYYQQALDITIEFGDRYNQASTYHQLGMVAQKLRKWEQAKTYYQQALDITIEFGDRYNQARIYHQLAIVAQNLREWQQAKTYYQQALDLKIEFGDRYNQASTYHQLGMVAQNLREWEQAKTYYQQALDITIEFGDRYSQASTYHQLGIVAQNLREWEQAKTYYQQALDLKIEFGDRYSQASTYGQLGTLAEAQENYVEARLNLQTALEIYVEYKDEHWAGIARKILDELPE,failed
